Numbering of substitutions follows the chain as printed. Where no end group is shown, it is not given here.
Tests used:
[1] = biological target: T1, ERα-Y537S/14-3-3ζ protein complex (human (from the printed UniProt entry) …, UniProt P03372 302-595; P63104 1-245, Y537S | F591R | P592R, phosphothreonine at T594); assay: FP; DMSO
[2] = biological target: ERα-pT594-strep (ERαLBD-F-strep phosphorylated in vitro by PKA) (human (from the printed UniProt entry), UniProt P03372 302-595, S305A | F591R | P592R, phosphothreonine at T594); assay: FP; 100 uM E2
[3] = biological target: T1, ERα-Y537S/14-3-3ζ protein complex; assay: FP; 100 uM E2
[4] = biological target: T2, ERαLBD-F-strep (PKA-responsive, non-phosphorylated) (human (from the printed UniProt entry), UniProt P03372 302-595, S305A | F591R | P592R); assay: fluorescence polarisation; fluorescence anisotropy; ERα or complex titrated (2-fold series from 40 μM ERα) to 20 nM fluorescein-labeled SRC1 peptide; DMSO control; 20 mM HEPES pH 7.5, 150 mM NaCl, 10 mM MgCl2, 0.1% Tween20, 0.1% BSA; room temperature; apparent KD (4PL fit); conditions: both partners purified
T2 construct: also called ERα-strep; ERα(PKA)-strep; source: E. coli NiCo21 (DE3), purified (Ni-NTA, SUMO cleavage, Strep-Tactin, SEC); not shown: His tag, N-terminal, cleaved; SUMO, N-terminal, cleaved; strep-tag, C-terminal, kept
T2 sequence (looked up): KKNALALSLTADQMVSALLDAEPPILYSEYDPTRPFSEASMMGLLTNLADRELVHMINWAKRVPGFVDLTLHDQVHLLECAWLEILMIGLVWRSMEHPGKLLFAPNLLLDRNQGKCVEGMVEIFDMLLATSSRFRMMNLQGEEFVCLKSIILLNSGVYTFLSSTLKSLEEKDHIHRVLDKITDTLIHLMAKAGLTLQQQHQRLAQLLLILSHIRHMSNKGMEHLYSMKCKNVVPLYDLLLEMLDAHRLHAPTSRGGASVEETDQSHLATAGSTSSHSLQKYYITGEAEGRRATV

[5] = biological target: T3, ERα-Y537S LBD-F-strep (PKA-responsive), without 14-3-3ζ (human (from the printed UniProt entry), UniProt P03372 302-595, S305A | Y537S | F591R | P592R); assay: as above; conditions: both partners purified
T3 construct: the methods list ERα(PKA)-strep and ERα(PKA)-pT594-strep 'for WT ERα and Y537S mutant'; also called apo ERα-Y537S
T3 sequence (looked up): T2 sequence (looked up) with Y236S

[6] = biological target: T4, ERα-pT594-strep (ERαLBD-F-strep phosphorylated in vitro by PKA) (human (from the printed UniProt entry), UniProt P03372 302-595, S305A | F591R | P592R, phosphothreonine at T594); assay: as above; conditions: both partners purified
T4 construct: also called ERα(PKA)-pT594-strep; phosphorylated ERα; source: E. coli NiCo21 (DE3), phosphorylated in vitro with His-PKA-strep and ATP, purified (Ni-NTA, Strep-Tactin, SEC); not shown: His tag, N-terminal, cleaved; SUMO, N-terminal, cleaved; strep-tag, C-terminal, kept
T4 sequence (looked up): T2 sequence (looked up)

[7] = biological target: T2, ERαLBD-F-strep (PKA-responsive, …); assay: fluorescence polarisation; as a10 but in the presence of 100 μM E2; apparent KD; conditions: both partners purified
[8] = biological target: T3, ERα-Y537S LBD-F-strep (PKA-responsive), …; assay: as above; conditions: both partners purified
[9] = biological target: T4, ERα-pT594-strep (ERαLBD-F-strep …); assay: as above; conditions: both partners purified

T1 sequence (P63104 whole entry, stated change not applied, one chain of several): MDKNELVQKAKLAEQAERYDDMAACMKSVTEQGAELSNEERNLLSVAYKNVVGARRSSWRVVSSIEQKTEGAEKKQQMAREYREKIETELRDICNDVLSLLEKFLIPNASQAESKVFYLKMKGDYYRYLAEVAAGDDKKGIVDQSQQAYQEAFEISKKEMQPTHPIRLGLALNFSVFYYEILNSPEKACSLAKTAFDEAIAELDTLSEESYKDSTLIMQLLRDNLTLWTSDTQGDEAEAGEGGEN

Binder: LTERHKILHRLLQEGSPSD (also: fluorescein (FITC) label, position not given here) [fluorescein-labeled SRC-1 cofactor peptide (LXXLL motif of SRC-1/NCoA-1)]
- Kd [1]: 700 nM
- Kd [2]: 900 nM
- Kd [3]: 400 nM
- Kd [4]: ~20000 nM
- Kd [5]: 1700 nM
- Kd [6]: ~20000 nM
- Kd [7]: 1000 nM
- Kd [8]: 800 nM
- Kd [9]: 1000 nM

Source: PMC10302166, “Molecular basis and dual ligand regulation of tetrameric estrogen receptor α/14-3-3ζ protein complex” (The Journal of Biological Chemistry, 2023)
